Results on four molecules are retold here after patent US20090022738A1 (MICROMET, published 2009).

One test addresses T1, CD19 (human, UniProt P15391 20-556).
T1 construct: whole, on cells; also called CD19 on NALM-6 cells
T1 sequence (looked up): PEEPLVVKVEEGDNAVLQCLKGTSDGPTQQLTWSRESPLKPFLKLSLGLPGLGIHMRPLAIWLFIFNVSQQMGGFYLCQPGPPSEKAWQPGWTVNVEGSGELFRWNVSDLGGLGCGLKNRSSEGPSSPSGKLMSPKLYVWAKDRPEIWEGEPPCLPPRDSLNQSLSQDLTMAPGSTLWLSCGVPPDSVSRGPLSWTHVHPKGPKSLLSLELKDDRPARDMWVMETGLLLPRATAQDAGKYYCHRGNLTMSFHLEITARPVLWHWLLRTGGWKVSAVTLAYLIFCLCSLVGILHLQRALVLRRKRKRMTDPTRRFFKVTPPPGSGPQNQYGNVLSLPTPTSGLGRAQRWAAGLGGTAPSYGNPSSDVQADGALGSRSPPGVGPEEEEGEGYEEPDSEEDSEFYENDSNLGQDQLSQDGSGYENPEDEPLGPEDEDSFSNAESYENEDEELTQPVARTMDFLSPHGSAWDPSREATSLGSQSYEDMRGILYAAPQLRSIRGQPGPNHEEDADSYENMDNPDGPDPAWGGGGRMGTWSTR
Briefly: FACS, crude supernatant on CD19-positive NALM-6 cells; negative control MFI ca. 3. Here is the method:
(§1) In order to analyze the binding efficacy of the deimmunized constructs to CD3 and CD19 a FACS-based assay was performed. Initially, crude supernatants were tested for binding on CD3-enriched PBMCs or CD19-positive NALM-6 cells. Cells were incubated with non-diluted supernatants for 30 minutes at 8° C. Upon two wash steps the cells were labeled with an anti-His antibody (Qiagen) under the same conditions. After additional wash steps binding of the constructs was detected with a FITC-conjugated sheep anti-mouse antibody (Sigma). Cells were analyzed with a FACS Calibur cytometer (B&D). As controls supernatants of anti-CD19×anti-CD3 and GFP-transfected cells were included. […] The positive control, which was a non-deimmunized anti-CD19×anti-CD3 construct reached a MFI of around 60 showing that the deimmunized constructs comprising anti-CD3 (VH5/VL1) (SEQ ID NO.:190), anti-CD3 (VH5/VL2) (SEQ ID NO.:192), anti-CD3 (VH5/VL3) (SEQ ID NO.:194), anti-CD3 (VH7/VL1) (SEQ ID NO.:196), anti-CD3 (VH7/VL2) (SEQ ID NO.:198) and anti-CD3 (VH7/VL3) (SEQ ID NO.:200) bound CD3 with extremely high efficacy.
The FACS-based binding assay was also carried out for CD19. In this experiment CD19 and a secondary antibody was as a negative control. In this experiment, all assayed constructs achieved a MFI of at least 80 while the MFI of the negative control was ca. 3.

The target in test [1] is T2, human CD3 (human, UniProt P07766 23-207; P04234 22-171; P09693 23-182).
T2 construct: whole, on cells; also called CD3 antigen; human CD3 complex
Briefly: FACS, second experiment, crude supernatant on CD3-enriched PBMCs. On the procedure: as §1

Test [2] has as its target T2, human CD3. Briefly: FACS on CD3-enriched PBMCs.
Test [3] addresses T2, human CD3. Briefly: FACS, non-diluted crude supernatant on CD3-enriched PBMCs; anti-His + FITC anti-mouse. Here is the method:
as §1
On the technique in general: Flow cytometry measures light scatter and fluorescence of single cells or particles in a stream.

B1: anti-CD19×anti-CD3 (VH2/VL2) (SEQ ID NO.:180) (bispecific antibody)
chain: DIQLTQSPASLAVSLGQRATISCKASQSVDYDGDSYLNWYQQIPGQPPKLLIYDASNLVSGIPPRFSGSGSGTDFTLNIHPVEKVDAATYHCQQSTEDPWTFGGGTKLEIKGGGGSGGGGSGGGGSQVQLQQSGAELVRPGSSVKISCKASGYAFSSYWMNWVKQRPGQGLEWIGQIWPGDGDTNYNGKFKGKATLTADESSSTAYMQLSSLASEDSAVYFCARRETTTVGRYYYAMDYWGQGTTVTVSSGGGGSDVQLVQSGAEVKKPGASVKVSCKASGYTATRYTMHWVRQAPGQGLEWIGYINPSRGYTNYAQKLQGRVTMTTDTSTSTAYMELSSLRSEDTATYYCARYYDDHYCLDYWGQGTTVTVSSGEGTSTGSGGSGGSGGADDIVLTQSPATLSLSPGERATLSCRASQSVSYMNWYQQKPGKAPKRWIYDTSKVASGVPARFSGSGSGTDYSLTINSLEAEDAATYYCQQWSSNPLTFGGGTKVEIK
notes: As m4: bispecific single chain, His-tagged; also called pEF anti-CD19×anti-CD3 (VH2/VL2)
For B1, the figures for the MFI with CD19 and in the test with human CD3 [1] were at least 80 MFI and about 6 MFI, respectively. Also, the binding result with human CD3 [2] was “no binding (tested: non-diluted supernatant)”.

B2: anti-CD19×anti-CD3 (VH5/VL2) (SEQ ID NO.:192) (bispecific antibody)
chain: DIQLTQSPASLAVSLGQRATISCKASQSVDYDGDSYLNWYQQIPGQPPKLLIYDASNLVSGIPPRFSGSGSGTDFTLNIHPVEKVDAATYHCQQSTEDPWTFGGGTKLEIKGGGGSGGGGSGGGGSQVQLQQSGAELVRPGSSVKISCKASGYAFSSYWMNWVKQRPGQGLEWIGQIWPGDGDTNYNGKFKGKATLTADESSSTAYMQLSSLASEDSAVYFCARRETTTVGRYYYAMDYWGQGTTVTVSSGGGGSDVQLVQSGAEVKKPGASVKVSCKASGYTFTRYTMHWVRQAPGQGLEWIGYINPSRGYTNYADSVKGRFTITTDKSTSTAYMELSSLRSEDTATYYCARYYDDHYCLDYWGQGTTVTVSSGEGTSTGSGGSGGSGGADDIVLTQSPATLSLSPGERATLSCRASQSVSYMNWYQQKPGKAPKRWIYDTSKVASGVPARFSGSGSGTDYSLTINSLEAEDAATYYCQQWSSNPLTFGGGTKVEIK
notes: As m4: bispecific single chain, His-tagged; also called pEF anti-CD19×anti-CD3 (VH5/VL2); anti-CD3 (VH5/VK2)
Molecule B2 returned an MFI with CD19 of at least 80 MFI. For the same molecule, in the test with human CD3 [3], the MFI was at least 90 MFI and the “fold over the negative control (secondary antibody only, MFI ca. 3.5)” value was about 25 fold.

B3: anti-CD19×anti-CD3 (VH2/VL1) (SEQ ID NO.:178) (bispecific antibody)
chain: DIQLTQSPASLAVSLGQRATISCKASQSVDYDGDSYLNWYQQIPGQPPKLLIYDASNLVSGIPPRFSGSGSGTDFTLNIHPVEKVDAATYHCQQSTEDPWTFGGGTKLEIKGGGGSGGGGSGGGGSQVQLQQSGAELVRPGSSVKISCKASGYAFSSYWMNWVKQRPGQGLEWIGQIWPGDGDTNYNGKFKGKATLTADESSSTAYMQLSSLASEDSAVYFCARRETTTVGRYYYAMDYWGQGTTVTVSSGGGGSDVQLVQSGAEVKKPGASVKVSCKASGYTATRYTMHWVRQAPGQGLEWIGYINPSRGYTNYAQKLQGRVTMTTDTSTSTAYMELSSLRSEDTATYYCARYYDDHYCLDYWGQGTTVTVSSGEGTSTGSGGSGGSGGADDIQMTQSPSSLSASVGDRVTITCRASQSVSYMNWYQQKPGKAPKRWIYDTSKVASGVPARFSGSGSGTDYSLTINSLEAEDAATYYCQQWSSNPLTFGGGTKVEIK
notes: also called pEF anti-CD19×anti-CD3 (VH2/VL1)
On to B3, for which the MFI with CD19 is at least 80 MFI; in the test with human CD3 [1], about 6 MFI. The binding result in the test with human CD3 [2] is recorded as “no binding (tested: non-diluted supernatant)”.

B4: anti-CD19×anti-CD3 (VH5/VL3) (SEQ ID NO.:194) (bispecific antibody)
chain: DIQLTQSPASLAVSLGQRATISCKASQSVDYDGDSYLNWYQQIPGQPPKLLIYDASNLVSGIPPRFSGSGSGTDFTLNIHPVEKVDAATYHCQQSTEDPWTFGGGTKLEIKGGGGSGGGGSGGGGSQVQLQQSGAELVRPGSSVKISCKASGYAFSSYWMNWVKQRPGQGLEWIGQIWPGDGDTNYNGKFKGKATLTADESSSTAYMQLSSLASEDSAVYFCARRETTTVGRYYYAMDYWGQGTTVTVSSGGGGSDVQLVQSGAEVKKPGASVKVSCKASGYTFTRYTMHWVRQAPGQGLEWIGYINPSRGYTNYADSVKGRFTITTDKSTSTAYMELSSLRSEDTATYYCARYYDDHYCLDYWGQGTTVTVSSGEGTSTGSGGSGGSGGADDIVLTQSPATLSLSPGERATLTCRASSSVSYMNWYQQKPGKAPKRWIYDTSKVASGVPARFSGSGSGTDYSLTINSLEAEDAATYYCQQWSSNPLTFGGGTKVEIK
notes: As m4: bispecific single chain, His-tagged; also called pEF anti-CD19×anti-CD3 (VH5/VL3)
In the test with CD19, B4 gave an MFI of at least 80 MFI. Besides, in the test with human CD3 [3], the MFI is at least 90 MFI and the “fold over the negative control (secondary antibody only, MFI ca. 3.5)” value is about 25 fold.
